Source: patent US20250243271A1 (ALCEA THERAPEUTICS, published 2025)

How the values were obtained:
[1] = molecular target: T1, keyhole limpet hemocyanin; assay: polyreactivity assay, reactivity normalized to the highest value for each probe
T1 construct: Probe of the polyreactivity assay; also called KLH
Description: (§1) Polyreactivity assays. The non-specific reactivity of H07-Lib3 was evaluated towards cardiolipin, keyhole limpet hemocyanin (KLH), lipopolysaccharides (LPS), single-stranded DNA (ssDNA), double-stranded DNA (dsDNA), insulin, and bovine serum albumin (BSA). Additional therapeutic antibodies (bococizumab, efalizumab, gantenerumab, ibalizumab, lenzilumab, and panitumumab) were included in experiments for comparison. The reactivity percentage of each antibody was normalized to the highest reactivity value for each probe. Threshold for acceptable polyreactivity was set to 30% for all probes.

insulin = molecular target: T2, insulin; assay: as above
T2 construct: Probe of the polyreactivity assay
Description: as §1

bovine serum albumin = molecular target: T3, bovine serum albumin (bovine, UniProt P02769 25-607); assay: as above
T3 construct: Probe of the polyreactivity assay; also called BSA
Description: as §1

Recombinant human Notch4 [2] = molecular target: T4, Recombinant human Notch4 (human, UniProt Q99466 24-1447, limits assumed); assay: SPR, antibody captured by anti-human IgG Fc on HC30M chip, Notch4 as analyte
T4 construct: also called Notch4 analyte; Notch4 (antigen)
T4 sequence: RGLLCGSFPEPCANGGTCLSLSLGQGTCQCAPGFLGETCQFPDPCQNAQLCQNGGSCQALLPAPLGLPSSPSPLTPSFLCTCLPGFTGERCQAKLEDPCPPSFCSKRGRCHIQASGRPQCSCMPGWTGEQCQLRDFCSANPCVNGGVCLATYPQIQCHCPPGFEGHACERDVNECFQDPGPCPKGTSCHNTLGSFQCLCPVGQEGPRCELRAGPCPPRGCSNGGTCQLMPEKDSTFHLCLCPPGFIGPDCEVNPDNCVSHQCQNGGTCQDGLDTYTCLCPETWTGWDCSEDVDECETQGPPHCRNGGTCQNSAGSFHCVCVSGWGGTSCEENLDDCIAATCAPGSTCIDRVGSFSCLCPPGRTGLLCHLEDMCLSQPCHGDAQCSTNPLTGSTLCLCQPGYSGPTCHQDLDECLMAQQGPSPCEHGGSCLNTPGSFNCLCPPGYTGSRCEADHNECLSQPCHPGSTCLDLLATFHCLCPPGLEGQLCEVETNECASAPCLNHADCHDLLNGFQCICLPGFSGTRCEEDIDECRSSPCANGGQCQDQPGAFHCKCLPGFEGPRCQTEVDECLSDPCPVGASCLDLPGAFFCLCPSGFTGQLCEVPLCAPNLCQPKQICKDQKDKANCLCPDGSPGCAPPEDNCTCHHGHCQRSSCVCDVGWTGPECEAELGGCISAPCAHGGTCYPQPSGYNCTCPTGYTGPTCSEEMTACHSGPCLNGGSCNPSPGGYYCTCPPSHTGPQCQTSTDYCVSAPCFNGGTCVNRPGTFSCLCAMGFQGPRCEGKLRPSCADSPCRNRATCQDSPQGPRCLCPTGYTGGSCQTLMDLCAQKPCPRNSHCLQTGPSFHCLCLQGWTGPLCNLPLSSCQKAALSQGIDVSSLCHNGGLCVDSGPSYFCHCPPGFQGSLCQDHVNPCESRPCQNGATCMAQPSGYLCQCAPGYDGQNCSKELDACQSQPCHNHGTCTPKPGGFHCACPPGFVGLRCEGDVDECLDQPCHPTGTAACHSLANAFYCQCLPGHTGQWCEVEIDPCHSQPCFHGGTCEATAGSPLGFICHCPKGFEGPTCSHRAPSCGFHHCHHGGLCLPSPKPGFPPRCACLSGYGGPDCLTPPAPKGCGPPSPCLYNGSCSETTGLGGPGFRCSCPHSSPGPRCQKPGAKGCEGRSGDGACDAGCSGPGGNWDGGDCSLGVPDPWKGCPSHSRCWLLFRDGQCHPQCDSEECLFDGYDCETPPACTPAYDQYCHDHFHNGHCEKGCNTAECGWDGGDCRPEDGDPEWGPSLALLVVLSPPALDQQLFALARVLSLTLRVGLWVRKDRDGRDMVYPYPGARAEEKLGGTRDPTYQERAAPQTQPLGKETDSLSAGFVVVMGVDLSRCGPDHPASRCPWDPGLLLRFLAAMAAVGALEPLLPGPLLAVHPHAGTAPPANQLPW
Description: Binding kinetics measurements. Following expression and purification, clones were characterized using surface plasmon resonance (SPR) to determine binding kinetics and epitope binding activity. HC30M chips (polycarboxylate hydrogel surfaces having medium charge density and 30 nm coating thickness) were coated with anti-human Fc antibodies (unlabeled goat anti-human IgG Fc from Southern Biotech) to capture the candidate antibodies. Candidate antibodies were diluted to 10 μg/mL in HEPES-buffered saline Tris-EDTA (HBSTE)) and exposed to the surfaces for 15 minutes. After stabilizing baseline using HBSTE, Notch4 analytes were injected sequentially from a lowest concentration of 0.41 nM to a highest concentration of 300 nM. (Notch4 was diluted in HBSTE+0.5 mg/mL bovine serum albumin (BSA) to obtain a series of 3-fold dilutions.) To assess specificity, experiments were also run using Notch2 as an analyte in a single injection at 100 nM in HBSTE+0.5 mg/mL.

Recombinant human Notch4 [3] = molecular target: T4, Recombinant human Notch4; assay: SPR, antibody captured by anti-human polyclonal Fc antibodies on CM5 chip, Notch4 as analyte at 300 nM
Description: (§2) Binding kinetics measurements. H07-Lib3 binding kinetics were determined using surface plasmon resonance (SPR). CM5 chips were coated with anti-human polyclonal Fc antibodies (Southern Biotech) to capture candidate antibody. Candidate antibody was diluted in HEPES-buffered saline with 0.005% surfactant P20 (HBS-P) and exposed to the surfaces for 20 minutes. […] To assess specificity, experiment was also run using Notch3 as an analyte at 300 nM.

Recombinant human Notch4 [4] = molecular target: T4, Recombinant human Notch4; assay: SPR, antibody captured by anti-human polyclonal Fc antibodies on CM5 chip, Notch4 as analyte at 300 nM; Table 4 SPR, Notch4 as analyte
Description: as §2

T3 sequence (P02769 25-607 limits assumed): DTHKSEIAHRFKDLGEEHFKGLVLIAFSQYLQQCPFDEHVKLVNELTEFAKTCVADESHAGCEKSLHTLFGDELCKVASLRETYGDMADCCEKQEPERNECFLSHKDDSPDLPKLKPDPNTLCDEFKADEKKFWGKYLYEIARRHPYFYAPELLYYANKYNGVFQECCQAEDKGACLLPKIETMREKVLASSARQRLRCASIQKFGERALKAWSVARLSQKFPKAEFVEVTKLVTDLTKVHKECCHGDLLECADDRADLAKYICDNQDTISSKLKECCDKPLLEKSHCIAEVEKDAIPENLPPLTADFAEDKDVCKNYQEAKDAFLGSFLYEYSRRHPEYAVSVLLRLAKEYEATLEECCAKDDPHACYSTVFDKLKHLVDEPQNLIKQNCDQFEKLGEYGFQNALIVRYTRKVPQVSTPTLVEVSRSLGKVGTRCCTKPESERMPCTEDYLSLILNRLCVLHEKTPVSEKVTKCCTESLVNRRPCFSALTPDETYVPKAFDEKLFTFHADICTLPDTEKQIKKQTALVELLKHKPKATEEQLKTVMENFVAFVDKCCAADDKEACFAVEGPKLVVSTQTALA

B1: H07-Lib3-Pl1 (antibody, V domains shown)
VH: EVQLVESGGGLVQPGGSLRLSCAASGLPFSSYAMSWVRQAPGKGLELVASIGTAGDAYYPDSVKGRFTISRDNAKNSLYLQMNSLRAEDTAVYYCARVGPFWQGFAFDIWGQGTMVTVSS
VL: DIVMTQSPLSLPVTPGEPASISCRSSQSLLHSSGHNYLHWYLQKPGQSPQLLIYMTYNRASGVPDRFSGSGSGTDFTLKISRVEAEDVGVYYCLQTTHWPHTFGGGTKVEIK
notes: Tested as an antibody captured by anti-human Fc antibodies
normalized reactivity [1]: < 30% | normalized reactivity (insulin): < 30% | normalized reactivity (bovine serum albumin): < 30% | Kd (Recombinant human Notch4 [2]): 1.4 nM | koff (Recombinant human Notch4 [3]): 0.00164 s⁻¹ | kon (Recombinant human Notch4 [3]): 98300 M⁻¹ s⁻¹ | Kd (Recombinant human Notch4 [4]): 16.6 nM
